Source: paper PMC3776778, “A Fully Human Inhibitory Monoclonal Antibody to the Wnt Receptor RYK” (PLoS ONE, 2013)

Molecular target: T1, recombinant mouse Wnt3a protein (mouse, UniProt P27467 19-352)
T1 construct: recombinant mouse Wnt3a (R&D Systems); the bought protein is probably the mature secreted form (surmise); also called recombinant Wnt3a protein; source: bought: R&D Systems
Assay: ELISA; competitive ELISA, third round of a screen of a human scFv phage display library: phage clones against recombinant mouse Wnt3a for binding to purified hRYKWD.Fc
Details: both partners purified

T1 sequence (P27467 19-352): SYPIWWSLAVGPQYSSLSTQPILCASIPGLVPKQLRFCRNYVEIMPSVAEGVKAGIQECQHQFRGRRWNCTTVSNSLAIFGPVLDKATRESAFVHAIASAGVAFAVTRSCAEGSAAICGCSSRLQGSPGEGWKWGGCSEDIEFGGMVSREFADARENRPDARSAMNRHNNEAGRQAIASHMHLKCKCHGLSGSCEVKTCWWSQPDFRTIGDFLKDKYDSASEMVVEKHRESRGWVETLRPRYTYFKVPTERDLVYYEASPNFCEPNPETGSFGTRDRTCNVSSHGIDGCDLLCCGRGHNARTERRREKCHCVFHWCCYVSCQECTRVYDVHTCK

binding result: binds
B1: hRYKWD.Fc (WIF domain of human RYK fused to the Fc.FLAG region of human IgG1) (Fc fusion, UniProt P34925 66-194, looked up)
chain: LYLSEDEVRRLIGLDAELYYVRNDLISHYALSFSLLVPSETNFLHFTWHAKSKVEYKLGFQVDNVLAMDMPQVNISVQGEVPRTLSVFRVELSCTGKVDSEVMILMQLNLTVNSSKNFTVLNFKRRKMC
notes: WIF domain of human RYK, lacking the metalloprotease cleavage site; also called hRYKWD.Fc.FLAG; human RYK WIF domain-only fusion protein
